Source: patent EP4714974A1 (Shanghai Qilu Pharmaceutical Research and Development …, dated 2026)

T1: cynomolgus monkey CD3 (purchased from Acro, Cat. No. CDD-C52W4) (cynomolgus monkey, UniProt Q95LI5 22-117)
T1 construct: Bought reagent
T1 sequence (looked up): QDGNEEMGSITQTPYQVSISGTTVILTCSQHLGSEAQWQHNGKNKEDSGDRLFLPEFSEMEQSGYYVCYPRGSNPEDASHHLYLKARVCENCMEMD

T2: cynomolgus monkey GPRC5D (cynomolgus monkey)
T2 chain: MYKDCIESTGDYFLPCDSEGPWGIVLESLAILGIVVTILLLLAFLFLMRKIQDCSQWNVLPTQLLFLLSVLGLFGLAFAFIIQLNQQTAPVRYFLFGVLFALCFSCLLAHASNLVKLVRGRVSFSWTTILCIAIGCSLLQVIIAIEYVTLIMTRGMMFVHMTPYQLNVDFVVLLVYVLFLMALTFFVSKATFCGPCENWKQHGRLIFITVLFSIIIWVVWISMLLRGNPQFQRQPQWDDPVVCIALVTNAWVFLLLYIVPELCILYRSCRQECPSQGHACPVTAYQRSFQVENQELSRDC


Tests used:
human GPRC5D [1] = molecular target: T3, human GPRC5D (human, UniProt Q9NZD1 1-345); assay: flow cytometry (FACS) on RPMI8226 cells expressing hGPRC5D
T3 construct: whole, on cells; also called hGPRC5D; G-protein coupled receptor family C group 5 member D
T3 sequence (Q9NZD1 whole entry): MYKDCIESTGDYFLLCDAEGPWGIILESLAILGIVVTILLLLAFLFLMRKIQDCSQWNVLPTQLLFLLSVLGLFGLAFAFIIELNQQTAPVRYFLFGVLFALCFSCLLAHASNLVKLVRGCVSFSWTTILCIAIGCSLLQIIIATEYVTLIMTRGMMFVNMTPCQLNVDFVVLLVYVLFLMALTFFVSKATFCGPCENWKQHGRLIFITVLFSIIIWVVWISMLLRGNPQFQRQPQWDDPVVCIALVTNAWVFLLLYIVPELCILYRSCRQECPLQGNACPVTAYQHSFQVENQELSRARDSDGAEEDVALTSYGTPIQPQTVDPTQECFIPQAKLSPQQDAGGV

[2] = molecular target: T4, human CD3 on Jurkat cells (human, UniProt P07766 23-207); assay: flow cytometry (FACS) on Jurkat cells expressing hCD3
T4 construct: whole, on cells; CD3 complex on cells; also called hCD3; Jurkat cell strain
T4 sequence (P07766 23-207): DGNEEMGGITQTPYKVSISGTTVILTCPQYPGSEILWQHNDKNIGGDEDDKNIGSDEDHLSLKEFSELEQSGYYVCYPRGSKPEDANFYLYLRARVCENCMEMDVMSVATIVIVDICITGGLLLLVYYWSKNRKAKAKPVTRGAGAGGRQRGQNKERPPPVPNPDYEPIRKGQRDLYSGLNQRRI

[3] = molecular target: T1, cynomolgus monkey CD3 (purchased from …); assay: SPR (Biacore 8K), CD3 immobilised on CM5 chip, bispecific antibody as analyte, 1:1 Langmuir fit
[4] = molecular target: T5, human CD3 (purchased from Acro, Cat. No. CDD-H52W1) (human, UniProt P07766 23-126); assay: as above
T5 construct: Bought reagent; also called human CD3 protein
T5 sequence (P07766 23-126): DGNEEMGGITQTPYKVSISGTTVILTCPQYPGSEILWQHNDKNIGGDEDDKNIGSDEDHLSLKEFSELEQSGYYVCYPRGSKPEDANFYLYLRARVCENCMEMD

human GPRC5D [5] = molecular target: T3, human GPRC5D; assay: cell-based or functional assay
human GPRC5D [6] = molecular target: T3, human GPRC5D; assay: flow cytometry (FACS) on NCI-H929 cells expressing hGPRC5D
human GPRC5D [7] = molecular target: T3, human GPRC5D; assay: flow cytometry on human GPRC5D-CHOK1 cells
human GPRC5A = molecular target: T6, human GPRC5A (human, UniProt Q8NFJ5 1-357); assay: flow cytometry on human GPRC5A-CHOK1 cells
T6 construct: whole, on cells; also called human GPRC5A-CHOK1 cell line
T6 sequence (Q8NFJ5 whole entry): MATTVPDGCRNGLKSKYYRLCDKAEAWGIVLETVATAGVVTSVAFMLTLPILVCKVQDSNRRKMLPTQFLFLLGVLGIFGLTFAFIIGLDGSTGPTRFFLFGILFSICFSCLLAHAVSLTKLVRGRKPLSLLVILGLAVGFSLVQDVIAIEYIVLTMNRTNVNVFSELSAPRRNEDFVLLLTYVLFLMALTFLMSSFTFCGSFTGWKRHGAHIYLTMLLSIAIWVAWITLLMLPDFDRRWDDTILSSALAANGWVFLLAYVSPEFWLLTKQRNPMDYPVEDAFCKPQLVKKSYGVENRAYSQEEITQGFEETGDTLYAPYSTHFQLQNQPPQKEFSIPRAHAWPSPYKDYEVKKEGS

cynomolgus monkey GPRC5D = molecular target: T2, cynomolgus monkey GPRC5D; assay: flow cytometry on cynomolgus monkey GPRC5D-CHOK1 cells
human GPRC5D [8] = molecular target: T3, human GPRC5D; assay: flow cytometry on NCI-H929 cells
human GPRC5D [9] = molecular target: T3, human GPRC5D; assay: flow cytometry on human GPRC5D-CHOK1 cells; remark: listed apart in the source

Row | Binder | EC50 (human GPRC5D [1]) | EC50 [2] | Kd [3] | koff [3] | kon [3] | Kd [4] | koff [4] | kon [4] | TDCC EC50(nM), NCI-H929 cell strain (human GPRC5D [5]) | TDCC EC50(nM), RPMI8226 cell strain (human GPRC5D [5]) | EC50 (human GPRC5D [6]) | EC50 (human GPRC5D [7]) | binding result (human GPRC5A) | EC50 (cynomolgus monkey GPRC5D) | EC50 (human GPRC5D [8]) | EC50 (human GPRC5D [9])
1 | Bispecific antibody 1 (bispecific antibody, human IgG1, kappa, L234A L235A, 2+1 format: two GPRC5D Fabs and one CD3 scFv placed between a Fab and the Fc; also called anti-CD3-GPRC5D bispecific antibody 1; anti-GPRC5D/CD3 bispecific antibody) heavy 1: not shown heavy 2: QVQLVQSGAEVKKPGASVKVSCKASGYTFTSYIIHWVRQAPGQGLEWIGYINPYNDGTKYNEKFKGRVTMTSDTSTSTVYMELSSLRSEDTAVYYCARGGIRAFMNYWGQGTLVTVSSASTKGPSVFPLAPSSKSTSGGTAALGCLVKDYFPEPVTVSWNSGALTSGVHTFPAVLQSSGLYSLSSVVTVPSSSLGTQTYICNVNHKPSNTKVDKKVEPKSCDKTHTCPPCPAPEAAGGPSVFLFPPKPKDTLMISRTPEVTCVVVDVSHEDPEVKFNWYVDGVEVHNAKTKPREEQYNSTYRVVSVLTVLHQDWLNGKEYKCKVSNKALPAPIEKTISKAKGQPREPQVCTLPPSRDELTKNQVSLSCAVKGFYPSDIAVEWESNGQPENNYKTTPPVLDSDGSFFLVSKLTVDKSRWQQGNVFSCSVMHEALHNRYTQKSLSLSPGK light: DIQMTQSPSSLSASVGDRVTITCKASQDVGTAVAWYQQKPGKAPKLLIYWASTRHTGVPSRFSGSGSGTDFTLTISSLQPEDFATYYCQHYISWTFGQGTKVEIKRTVAAPSVFIFPPSDEQLKSGTASVVCLLNNFYPREAKVQWKVDNALQSGNSQESVTEQDSKDSTYSLSSTLTLSKADYEKHKVYACEVTHQGLSSPVTKSFNRGEC | 7.48 nM | 22.1 nM | 16.8 nM | 0.00292 s⁻¹ | 174000 M⁻¹ s⁻¹ | 20 nM | 0.00226 s⁻¹ | 113000 M⁻¹ s⁻¹ | 0.001 nM | 0.01 nM | 1.07 nM |  |  |  |  | 
2 | Bispecific antibody 2 (bispecific antibody, 1+1 format: one GPRC5D Fab, one CD3 scFv between Fab and Fc, Fc-only hole chain; also called anti-CD3-GPRC5D bispecific antibody 2; anti-GPRC5D/CD3 bispecific antibody) heavy: not shown light: DIQMTQSPSSLSASVGDRVTITCKASQDVGTAVAWYQQKPGKAPKLLIYWASTRHTGVPSRFSGSGSGTDFTLTISSLQPEDFATYYCQHYISWTFGQGTKVEIKRTVAAPSVFIFPPSDEQLKSGTASVVCLLNNFYPREAKVQWKVDNALQSGNSQESVTEQDSKDSTYSLSSTLTLSKADYEKHKVYACEVTHQGLSSPVTKSFNRGEC DKTHTCPPCPAPEAAGGPSVFLFPPKPKDTLMISRTPEVTCVVVDVSHEDPEVKFNWYVDGVEVHNAKTKPREEQYNSTYRVVSVLTVLHQDWLNGKEYKCKVSNKALPAPIEKTISKAKGQPREPQVCTLPPSRDELTKNQVSLSCAVKGFYPSDIAVEWESNGQPENNYKTTPPVLDSDGSFFLVSKLTVDKSRWQQGNVFSCSVMHEALHNRYTQKSLSLSPGK | 22.9 nM | 12.9 nM | 18.9 nM | 0.00279 s⁻¹ | 147000 M⁻¹ s⁻¹ | 18.1 nM | 0.00214 s⁻¹ | 118000 M⁻¹ s⁻¹ | 0.017 nM | 0.08 nM | 5.19 nM |  |  |  |  | 
3 | 18CH-16 (chimeric mouse hybridoma-derived anti-GPRC5D antibody) (antibody, V domains shown, also called parent antibody) VH: EVQLQQSGPELVKPGASVKMSCKASGYTFTSYIIHWVKQKPGQGLEWIGYINPYNDGTKYNEKFKGKATLTSDRSSSTAYMEVSSLTSEDSAVYYCARGGIRAFMNYWGQGTSVTVSS VL: DIVMTQSHKFMSTSVGDRVSITCKASQDVGTAVAWYQQKPGQSPKLLIYWASTRHTGVPDRFTGSGSGTDFTLSISNVQSEDLADYFCQHYISWTFGGGTNLEIK |  |  |  |  |  |  |  |  |  |  |  | 3.89 nM | no binding (tested: 100 nM (initial concentration)) | 4.39 nM |  | 
4 | 18CH16H2L1 (humanized mouse hybridoma-derived anti-GPRC5D antibody) (antibody, V domains shown, also called humanized clone 18CH16 antibody) VH: QVQLVQSGAEVKKPGASVKVSCKASGYTFTSYIIHWVRQAPGQGLEWIGYINPYNDGTKYNEKFKGRVTMTSDTSTSTVYMELSSLRSEDTAVYYCARGGIRAFMNYWGQGTLVTVSS VL: DIQMTQSPSSLSASVGDRVTITCKASQDVGTAVAWYQQKPGKAPKLLIYWASTRHTGVPSRFSGSGSGTDFTLTISSLQPEDFATYYCQHYISWTFGQGTKVEIK |  |  |  |  |  |  |  |  |  |  |  |  |  |  | 0.3 nM | 0.51 nM
